Results: patent US20220177587A1, “METHODS AND USES OF VARIANT CD80 FUSION PROTEINS AND RELATED CONSTRUCTS” (Alpine Immune Sciences, Inc., priority 2018, published 2022)
Positions count from the first letter of the chain named. In names and notes the source's numbering stands.

How the values were obtained:
CD28 [1] = target: T1, CD28 (Homo sapiens, UniProt P10747); test: Flow binding to Jurkat/IL2 reporter cells (CD28); design: host or cells: Jurkat cells expressing an IL-2-luciferase reporter
Method: Binding of selected immunomodulatory fusion proteins to cognate binding partners was assessed. […] Cells were sorted in a Bio-Rad S3 Cell Sorter (Bio-Rad Corp., USA) to >98% purity. Jurkat/IL2 reporter cells, which endogenously express CD28, were used to detect binding to CD28.
For staining and analysis by flow cytometry, 100,000 cells of appropriate transfected cells were plated in 96-well round bottom plates. Cells were spun down and resuspended in staining buffer (phosphate buffered saline (PBS), 1% bovine serum albumin (BSA), and 0.1% sodium azide) for 20 minutes to block non-specific binding. […] Primary staining was performed on ice for 45 minutes, before washing cells in staining buffer twice. Phycoerythrin (PE)-conjugated anti-human Fc (Jackson ImmunoResearch, USA) was diluted 1:150, added to cells and incubated another 30 minutes on ice. Cells were then washed twice with 150 μL/well stain buffer, fixed in 2% formaldehyde/PBS, and analyzed on Intellicyt flow cytometer (Intellicyt Corp., USA). PE Mean Fluorescence Intensity (MFI) was calculated for each cell type with FlowJo Version 10 software (FlowJo LLC, USA).
Binding assays were carried out to assess the specificity and affinity of multivalent proteins to cell-expressed CTLA-4, CD28, and PD-L1 counter structures.
The EC50 for binding also was determined.

huCTLA4 = huCTLA4 (Homo sapiens, UniProt P16410); test: Flow binding to CHO cells stably expressing CTLA4; design: huCTLA4 and huPD-L1, full-length mammalian surface expression constructs were generated; expressed in transfected cells; host or cells: CHO cells, lentiviral transduction, sorted to >98% purity; conditions: for CTLA4 MFI at 33.3 nM: CHO cells stably expressing CTLA4
Sequence of huCTLA4 (P16410 36-223): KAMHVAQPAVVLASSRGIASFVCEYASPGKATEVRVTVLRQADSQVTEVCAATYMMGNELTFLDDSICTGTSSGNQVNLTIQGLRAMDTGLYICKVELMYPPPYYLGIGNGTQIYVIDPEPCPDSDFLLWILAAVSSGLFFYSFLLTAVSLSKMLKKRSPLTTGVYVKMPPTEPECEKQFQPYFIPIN
In short: (§1)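 Fusion proteins bound to CHO cells stably expressing CTLA4 or PD-L1, or to Jurkat/IL2 reporter cells with endogenous CD28, for 45 min on ice after blocking in PBS/1% BSA. Detection with PE anti-human Fc by flow cytometry; PE MFI per cell type and binding EC50 determined.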

huPD-L1 = huPD-L1 (Homo sapiens, UniProt Q9NZQ7); test: Flow binding to CHO cells stably expressing PD-L1; design: huCTLA4 and huPD-L1, full-length mammalian surface expression constructs were generated; expressed in transfected cells; host or cells: CHO cells, lentiviral transduction, sorted to >98% purity; conditions: for PD-L1 MFI at 33.3 nM: CHO cells stably expressing PD-L1
Sequence of huPD-L1 (Q9NZQ7 19-290): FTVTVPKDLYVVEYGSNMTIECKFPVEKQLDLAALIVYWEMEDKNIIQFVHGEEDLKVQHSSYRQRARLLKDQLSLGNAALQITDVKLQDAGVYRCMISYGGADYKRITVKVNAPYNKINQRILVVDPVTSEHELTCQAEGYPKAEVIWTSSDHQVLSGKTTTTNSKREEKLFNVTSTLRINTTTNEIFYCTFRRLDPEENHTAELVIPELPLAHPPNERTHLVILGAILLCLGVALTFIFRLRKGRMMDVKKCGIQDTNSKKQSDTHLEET
In short: as §1

CD28 [2] = target: T1, CD28; test: Jurkat/IL2 + CHO/OKT3 +/- PD-L1 reporter assay: PD-L1-dependent CD28 costimulation; format: cell-based; design: host or cells: Jurkat cells expressing an IL-2-luciferase reporter; conditions: Table E21; Jurkat/IL2 + CHO/OKT3/PD-L1; CD80 Conc 5.0 nM
In short: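 Jurkat reporter cells (100,000/well) preincubated 15 min at room temperature with test protein, then cocultured 5 h at 37 °C with CHO aAPCs bearing anti-CD3 scFv (OKT3) with or without PD-L1. Luciferase luminescence (RLU) read after lysis-substrate addition.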

[3] = Table E4, MFI ratio to WT CD80 ECD-Fc (R&D) at 33.3 nM
[4] = Table E19, Jurkats (CD28), 33.3 nM
[5] = Table E11, 33.3 nM, listed as WT CD80 ECD-Fc = 1.0
[6] = Table E11, Jurkats (CD28), 33.3 nM

B1: E35D/M47V/N48KN68M/K89N (protein)
chain: VIHVTKEVKEVATLSCGHNVSVEELAQTRIYWQKDKKMVLTMMSGDVKIWPEYKNRTIFDITNNLSIMILALRPSDEGTYECVVLKYENDAFKREHLAEVTLSVKAD
CD28 [1]; Table E4, 33.3 nM, Jurkat cells (CD28)
  CD28 MFI at 33.3 nM: 11736
CD28 [1]; [3]
  CD28 Fold change to WT CD80: 0.65
huCTLA4; Table E4, 33.3 nM variant CD80 IgV-Fc
  CTLA4 MFI at 33.3 nM: 807
huCTLA4; [3]
  CTLA4 Fold change to WT CD80: 0.01
huPD-L1; Table E4, 33.3 nM
  PD-L1 MFI at 33.3 nM: 89775
huPD-L1; [3]
  PD-L1 Fold change to WT CD80: 7.56
huPD-L1; Table E4, binding to PD-L1 compared to binding to CD28
  Ratio of PDL1:CD28: 8

B2: V68M/L85Q (protein)
chain: B1 chain with D35E, V47M, K48N, L85Q, N89K
CD28 [1]; [4]
  CD28 MFI at 33.3 nM: 91.7
huCTLA4; Table E19, 33.3 nM
  CTLA4 MFI at 33.3 nM: 3288
huPD-L1; Table E19, 33.3 nM
  PD-L1 MFI at 33.3 nM: 347

B3: E35D/M47V/N48KN68M/L85M (protein)
chain: B1 chain with L85M, N89K
CD28 [1]; [5]
  CD28 Fold change to WT CD80: 7.8
CD28 [1]; [6]
  CD28 MFI at 33.3 nM: 245
huCTLA4; [5]
  CTLA4 Fold change to WT CD80: 8.9
huCTLA4; Table E11, 33.3 nM
  CTLA4 MFI at 33.3 nM: 15581
huPD-L1; [5]
  PD-L1 Fold change to WT CD80: 147.9
huPD-L1; Table E11, 33.3 nM
  PD-L1 MFI at 33.3 nM: 7618
huPD-L1; Table E11, MFI at 33.3 nM
  Ratio of PDL1:CD28: 31.1

B4: E35D/M47V/N48KN68M/A71G/L85M (protein)
chain: B1 chain with A71G, L85M, N89K
CD28 [1]; [5]
  CD28 Fold change to WT CD80: 9.6
CD28 [1]; [6]
  CD28 MFI at 33.3 nM: 302
huCTLA4; [5]
  CTLA4 Fold change to WT CD80: 9.5
huCTLA4; Table E11, 33.3 nM
  CTLA4 MFI at 33.3 nM: 16604
huPD-L1; [5]
  PD-L1 Fold change to WT CD80: 442.1
huPD-L1; Table E11, 33.3 nM
  PD-L1 MFI at 33.3 nM: 22770
huPD-L1; Table E11, MFI at 33.3 nM
  Ratio of PDL1:CD28: 75.4

B5: M47L/L85Q (protein)
chain: B1 chain with D35E, V47L, K48N, M68V, L85Q, N89K
CD28 [1]; [4]
  CD28 MFI at 33.3 nM: 88.1
CD28 [2]
  Relative Luciferase Units (RLU), CD80 Conc 5.0 nM: 416 RLU
huPD-L1; Table E19, 33.3 nM
  PD-L1 MFI at 33.3 nM: 5801

B6: N48K/K89N (protein)
chain: B1 chain with D35E, V47M, M68V
CD28 [1]; [4]
  CD28 MFI at 33.3 nM: 170
huCTLA4; Table E19, 33.3 nM
  CTLA4 MFI at 33.3 nM: 4370

B7: M47V/N48K (protein)
chain: B1 chain with D35E, M68V, N89K
CD28 [1]; [4]
  CD28 MFI at 33.3 nM: 413
huCTLA4; Table E19, 33.3 nM
  CTLA4 MFI at 33.3 nM: 44640
huPD-L1; Table E19, 33.3 nM
  PD-L1 MFI at 33.3 nM: 3083

B8: M47L/V68M/L85Q (protein)
chain: B1 chain with D35E, V47L, K48N, L85Q, N89K
CD28 [1]; [4]
  CD28 MFI at 33.3 nM: 60.9
huCTLA4; Table E19, 33.3 nM
  CTLA4 MFI at 33.3 nM: 11134
huPD-L1; Table E19, 33.3 nM
  PD-L1 MFI at 33.3 nM: 4039

B9: V68M (protein)
chain: B1 chain with D35E, V47M, K48N, N89K
CD28 [1]; [4]
  CD28 MFI at 33.3 nM: 37.9
huCTLA4; Table E19, 33.3 nM
  CTLA4 MFI at 33.3 nM: 568
huPD-L1; Table E19, 33.3 nM
  PD-L1 MFI at 33.3 nM: 118

B10: M47V/K89N (protein)
chain: B1 chain with D35E, K48N, M68V
CD28 [1]; [4]
  CD28 MFI at 33.3 nM: 197
huCTLA4; Table E19, 33.3 nM
  CTLA4 MFI at 33.3 nM: 32381
huPD-L1; Table E19, 33.3 nM
  PD-L1 MFI at 33.3 nM: 622
